Test system: Escherichia coli TOP10
Test: shrunken log2 fold change of peptide-encoding DNA abundance (4.5 h post-induction vs induction); higher = less antimicrobial activity (less host growth inhibition)
Settings: time post-induction: 4.5 h; library: site-saturation at positions 5, 18, 19, 20
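Also: peptides expressed intracellularly from a pBAD plasmid library in pooled LB shake-flask culture, induced with 0.3% L-arabinose, DNA abundance read by NGS, three biological replicates, DESeq2 with apeglm shrinkage.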

| Sequence | shrunken log2 fold change |
| --- | --- |
| RRIRERPPRLPRPRPRPKLYPRP | -0.432 |
| RRIRIRPPRLPRPRPRPTFKPRP | -0.102 |
| RRIRNRPPRLPRPRPRPYILPRP | -1.07 |
| RRIRRRPPRLPRPRPRPCAFPRP | 0.123 |
| RRIRARPPRLPRPRPRPSHAPRP | 0.333 |
| RRIRHRPPRLPRPRPRPFHWPRP | -0.0742 |
| RRIRLRPPRLPRPRPRPQYYPRP | -0.396 |
| RRIRCRPPRLPRPRPRPFIKPRP | -0.715 |
| RRIRMRPPRLPRPRPRPGLYPRP | -0.196 |
| RRIRTRPPRLPRPRPRPVPPPRP | 0.396 |
| RRIRCRPPRLPRPRPRPLWAPRP | 0.321 |
| RRIRCRPPRLPRPRPRPTNQPRP | -0.427 |
| RRIRFRPPRLPRPRPRPQRGPRP | 0.353 |
| RRIRMRPPRLPRPRPRPCEFPRP | 0.00328 |
| RRIRTRPPRLPRPRPRPMGRPRP | 0.217 |
| RRIRGRPPRLPRPRPRPMTDPRP | 0.603 |
| RRIRRRPPRLPRPRPRPWCPPRP | -0.0442 |
| RRIRNRPPRLPRPRPRPHGMPRP | -0.0652 |
| RRIRFRPPRLPRPRPRPFNGPRP | -0.163 |
| RRIRWRPPRLPRPRPRPWSFPRP | -0.0355 |
| RRIRFRPPRLPRPRPRPTGTPRP | 0.0314 |
| RRIRDRPPRLPRPRPRPMMVPRP | 0.0541 |
| RRIRIRPPRLPRPRPRPHKMPRP | -0.237 |
| RRIRTRPPRLPRPRPRPEHLPRP | -0.00973 |
| RRIRCRPPRLPRPRPRPDSKPRP | -0.657 |

| Sequence | shrunken log2 fold change |
| --- | --- |
| RRIRVRPPRLPRPRPRPKEIPRP | 0.104 |
| RRIRHRPPRLPRPRPRPTPVPRP | 0.137 |
| RRIRRRPPRLPRPRPRPQMQPRP | -0.205 |
| RRIRGRPPRLPRPRPRPNGFPRP | 0.0031 |
| RRIRWRPPRLPRPRPRPHGDPRP | 0.145 |
| RRIRVRPPRLPRPRPRPTYPPRP | -0.194 |
| RRIRARPPRLPRPRPRPNCRPRP | 0.0806 |
| RRIRPRPPRLPRPRPRPYHIPRP | -0.672 |
| RRIRSRPPRLPRPRPRPPATPRP | 0.725 |
| RRIRFRPPRLPRPRPRPPYFPRP | 0.0621 |
| RRIRNRPPRLPRPRPRPHQAPRP | -0.0146 |
| RRIRGRPPRLPRPRPRPDAYPRP | 0.829 |
| RRIRERPPRLPRPRPRPCSSPRP | 0.00543 |
| RRIRHRPPRLPRPRPRPPAHPRP | 0.0763 |
| RRIRVRPPRLPRPRPRPTKSPRP | -0.00156 |
| RRIRNRPPRLPRPRPRPQFSPRP | -0.306 |
| RRIRIRPPRLPRPRPRPQPDPRP | -0.483 |
| RRIRHRPPRLPRPRPRPKCIPRP | -0.021 |
| RRIRWRPPRLPRPRPRPRFAPRP | 0.695 |
| RRIRCRPPRLPRPRPRPETPPRP | 1.91 |
| RRIRERPPRLPRPRPRPWYHPRP | -0.588 |
| RRIRYRPPRLPRPRPRPFSYPRP | -0.145 |
| RRIRCRPPRLPRPRPRPLYMPRP | -0.807 |
| RRIRERPPRLPRPRPRPLNPPRP | -0.0394 |
| RRIRVRPPRLPRPRPRPPPIPRP | 0.59 |

| Sequence | shrunken log2 fold change |
| --- | --- |
| RRIRKRPPRLPRPRPRPWWWPRP | -0.0108 |
| RRIRERPPRLPRPRPRPASTPRP | -0.527 |
| RRIRQRPPRLPRPRPRPVIKPRP | -0.772 |
| RRIRFRPPRLPRPRPRPGICPRP | -0.0925 |
| RRIRWRPPRLPRPRPRPAWFPRP | 0.251 |
| RRIRARPPRLPRPRPRPWRTPRP | 0.14 |
| RRIRTRPPRLPRPRPRPRRRPRP | 0.411 |
| RRIRVRPPRLPRPRPRPGKHPRP | -0.391 |
| RRIRCRPPRLPRPRPRPPEQPRP | 2.18 |
| RRIRKRPPRLPRPRPRPTCFPRP | 0.259 |
| RRIRDRPPRLPRPRPRPNTAPRP | -0.0636 |
| RRIRYRPPRLPRPRPRPINMPRP | -0.281 |
| RRIRTRPPRLPRPRPRPYFGPRP | -0.589 |
| RRIRHRPPRLPRPRPRPEQAPRP | -0.0477 |
| RRIRPRPPRLPRPRPRPVYQPRP | -0.0913 |
| RRIRYRPPRLPRPRPRPETDPRP | -0.021 |
| RRIRSRPPRLPRPRPRPDGGPRP | -0.125 |
| RRIRCRPPRLPRPRPRPIFEPRP | 0.0936 |
| RRIRLRPPRLPRPRPRPTIEPRP | 0.033 |
| RRIRLRPPRLPRPRPRPDMGPRP | 0.0446 |
| RRIRWRPPRLPRPRPRPFTCPRP | 0.000407 |
| RRIRHRPPRLPRPRPRPITQPRP | -0.0204 |
| RRIRFRPPRLPRPRPRPRQNPRP | 0.353 |
| RRIRIRPPRLPRPRPRPPMAPRP | -0.256 |
| RRIRRRPPRLPRPRPRPMLWPRP | -0.0161 |

| Sequence | shrunken log2 fold change |
| --- | --- |
| RRIRSRPPRLPRPRPRPRCRPRP | 0.385 |
| RRIRRRPPRLPRPRPRPCGCPRP | 0.0953 |
| RRIRYRPPRLPRPRPRPGPRPRP | 0.744 |
| RRIRQRPPRLPRPRPRPMQNPRP | -0.324 |
| RRIRVRPPRLPRPRPRPMMEPRP | 0.00705 |
| RRIRSRPPRLPRPRPRPKKYPRP | -0.3 |
| RRIRGRPPRLPRPRPRPDLSPRP | 0.121 |
| RRIRLRPPRLPRPRPRPINTPRP | -0.881 |
| RRIRRRPPRLPRPRPRPKWVPRP | 0.242 |
| RRIRWRPPRLPRPRPRPWVIPRP | 0.00419 |
| RRIRERPPRLPRPRPRPKKGPRP | -0.438 |
| RRIRCRPPRLPRPRPRPWFMPRP | -0.776 |
| RRIRHRPPRLPRPRPRPIFVPRP | -0.358 |
| RRIRQRPPRLPRPRPRPYIKPRP | -1.38 |
| RRIRKRPPRLPRPRPRPTRFPRP | 0.436 |
| RRIRRRPPRLPRPRPRPDTPPRP | 0.342 |
| RRIRLRPPRLPRPRPRPNMSPRP | -0.129 |
| RRIRQRPPRLPRPRPRPFVAPRP | 0.0106 |
| RRIRYRPPRLPRPRPRPQHMPRP | -0.629 |
| RRIRKRPPRLPRPRPRPFEMPRP | 0.911 |
| RRIRNRPPRLPRPRPRPEPDPRP | 0.0698 |
| RRIRLRPPRLPRPRPRPWVDPRP | -0.0575 |
| RRIRQRPPRLPRPRPRPYWMPRP | 0.0425 |
| RRIRARPPRLPRPRPRPQHFPRP | 3.55 |
| RRIRERPPRLPRPRPRPDMNPRP | -0.00248 |

| Sequence | shrunken log2 fold change |
| --- | --- |
| RRIRRRPPRLPRPRPRPQHSPRP | -0.0462 |
| RRIRSRPPRLPRPRPRPSRNPRP | -0.129 |
| RRIRTRPPRLPRPRPRPHQHPRP | -0.415 |
| RRIRERPPRLPRPRPRPYGIPRP | -0.00973 |
| RRIRTRPPRLPRPRPRPLMKPRP | -0.26 |
| RRIRGRPPRLPRPRPRPAVTPRP | 0.688 |
| RRIRARPPRLPRPRPRPRAVPRP | 1.11 |
| RRIRMRPPRLPRPRPRPGQDPRP | 0.781 |
| RRIRARPPRLPRPRPRPFKSPRP | -0.549 |
| RRIRCRPPRLPRPRPRPFYIPRP | -0.58 |
| RRIRDRPPRLPRPRPRPKENPRP | 0.0579 |
| RRIRHRPPRLPRPRPRPKRGPRP | 0.0662 |
| RRIRRRPPRLPRPRPRPCQCPRP | 0.0262 |
| RRIRIRPPRLPRPRPRPGNYPRP | -0.261 |
| RRIRNRPPRLPRPRPRPCGQPRP | 0.0151 |
| RRIRTRPPRLPRPRPRPLIPPRP | -0.106 |
| RRIRERPPRLPRPRPRPLYKPRP | -0.769 |
| RRIRLRPPRLPRPRPRPIFEPRP | -0.0366 |
| RRIRVRPPRLPRPRPRPVMWPRP | 0.365 |
| RRIRNRPPRLPRPRPRPLPSPRP | 1.86 |
| RRIRLRPPRLPRPRPRPPTPPRP | 0.617 |
| RRIRLRPPRLPRPRPRPRMFPRP | -0.0408 |
| RRIRMRPPRLPRPRPRPHEYPRP | -0.308 |
| RRIRYRPPRLPRPRPRPQMTPRP | 0.0454 |
| RRIRVRPPRLPRPRPRPAEDPRP | 0.0101 |

— the supplement of paper PMC9112550, “Optimization of the antimicrobial peptide Bac7 by deep mutational scanning” (BMC Biology, 2022)
